Measured values reported in US20250213666A1 (UNIVERSITY OF CINCINNATI, published 2025).

Biological target: T1, Intimin-spike fusion protein (Intimin-Spike-RBD) surface displayed on E. coli Nissle 1917 (SARS-CoV-2)
T1 construct: also called pInt-spike; pInt-Spike-RBD
Experiment: cell aggregation assay (OD600) of nanobody-bearing EcN with spike-bearing EcN

B1: Lpp-OmpA-VHH72 nanobody (pLpp-OmpA-VHH72), surface displayed on E. coli Nissle 1917 or on its OMVs (VHH)
chain: CSSNAKIDQGINNNGPTHENQLGAGAFGGYQVNPYVGFEMGYDWLGRMPYKGSVENGAYKAQGVQLTAKLGYPITDDLDIYTRLGGMVWRADTKSNVYGKNHDTGVSPVFAGGVEYAITPEIATRKLENLYFQGTRQVQLQESGGGLVQAGGSLRLSCAASGRTFSEYAMGWFRQAPGKEREFVATISWSGGSTYYTDSVKGRFTISRDNAKNTVYLQMNSLKPDDTAVYYCAAAGLGTVVSEWDYDYDYWGQGTQVTVSSGSGSENLYFQGDYKDDDDKWSHPQFEKSR
notes: also called pLpp-OmpA-VHH72 Nb; Lpp-OmpA-VHH72 Nb
binding result: no binding
